Article PMC4944837 (Molecular cell, 2007)
Like-named read-outs stand apart in the source and are kept apart here.

B1: RbN (aa 40-355), Rb N-terminal domain (domain or fragment, human, UniProt P06400 40-355, looked up)
chain: EDLPLVRLEFEETEEPDFTALCQKLKIPDHVRERAWLTWEKVSSVDGVLGGYIQKKKELWGICIFIAAVDLDEMSFTFTELQKNIEISVHKFFNLLKEIDTSTKVDNAMSRLLKKYDVLFALFSKLERTCELIYLTQPSSSISTEINSALVLKVSWITFLLAKGEVLQMEDDLVISFQLMLCVLDYFIKLSPPMLLKEPYKTAVIPINGSPRTPRRGQNRSARIAKQLENDTRIIEVLCKEHECNIDEVKNVYFKNFIPFMNSLGLVTSNGLPEVENLSKRYEEIYLKNKDLDARLFLDHDKTLQTDSIDSFETQR
B2: Rb 40-355 ∆Ex5 (domain or fragment, human, UniProt P06400 40-355, looked up)
chain: EDLPLVRLEFEETEEPDFTALCQKLKIPDHVRERAWLTWEKVSSVDGVLGGYIQKKKELWGICIFIAAVDLDEMSFTFTELQKNIEISVHKFFNLLKEIDTSTKVDNAMSRLLKKYDVLFALFSKLERSTEINSALVLKVSWITFLLAKGEVLQMEDDLVISFQLMLCVLDYFIKLSPPMLLKEPYKTAVIPINGSPRTPRRGQNRSARIAKQLENDTRIIEVLCKEHECNIDEVKNVYFKNFIPFMNSLGLVTSNGLPEVENLSKRYEEIYLKNKDLDARLFLDHDKTLQTDSIDSFETQR

How the values were obtained:
Assay in all cases: pull-down
[1] = molecular target: T1, GST-Rb pocket (aa 379-792) (human, UniProt P06400 379-792)
T1 sequence (looked up): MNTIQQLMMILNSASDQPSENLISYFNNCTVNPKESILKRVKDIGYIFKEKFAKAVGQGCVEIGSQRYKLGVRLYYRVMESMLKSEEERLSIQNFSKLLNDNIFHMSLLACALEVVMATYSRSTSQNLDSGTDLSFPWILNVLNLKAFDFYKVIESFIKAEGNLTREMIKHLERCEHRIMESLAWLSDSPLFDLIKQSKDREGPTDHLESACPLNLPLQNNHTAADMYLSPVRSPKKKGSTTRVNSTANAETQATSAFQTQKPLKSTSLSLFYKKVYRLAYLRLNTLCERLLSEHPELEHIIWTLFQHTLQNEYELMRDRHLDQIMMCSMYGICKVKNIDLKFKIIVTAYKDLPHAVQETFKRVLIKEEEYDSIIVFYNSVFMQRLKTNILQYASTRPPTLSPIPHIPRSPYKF

[2] = molecular target: T2, GST-Rb∆N (aa 379-928) (human, UniProt P06400 379-928)
T2 sequence (looked up): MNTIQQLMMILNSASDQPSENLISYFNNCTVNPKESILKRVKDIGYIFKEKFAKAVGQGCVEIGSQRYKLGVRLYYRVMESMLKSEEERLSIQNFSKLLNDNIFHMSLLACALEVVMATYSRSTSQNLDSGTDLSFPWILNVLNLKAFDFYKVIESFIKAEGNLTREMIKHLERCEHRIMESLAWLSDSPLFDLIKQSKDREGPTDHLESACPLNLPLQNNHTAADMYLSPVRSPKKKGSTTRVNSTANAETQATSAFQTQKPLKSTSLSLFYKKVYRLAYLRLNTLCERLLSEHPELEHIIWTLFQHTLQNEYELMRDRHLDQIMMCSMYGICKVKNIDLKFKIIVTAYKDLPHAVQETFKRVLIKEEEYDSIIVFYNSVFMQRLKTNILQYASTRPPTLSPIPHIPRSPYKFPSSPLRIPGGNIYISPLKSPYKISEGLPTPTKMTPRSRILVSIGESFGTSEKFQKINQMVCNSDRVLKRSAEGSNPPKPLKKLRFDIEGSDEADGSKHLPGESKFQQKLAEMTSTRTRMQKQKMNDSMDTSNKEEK

[3] = molecular target: T1, GST-Rb pocket (aa 379-792); remark: listed apart in the source

Binder | binding result [1] | binding result [2] | binding result [3]
NRLTEELGCDEIIDRE (peptide, UniProt Q9Y6B2 172-187, looked up) [EID-1 LxCxE peptide (aa 172-187, LxCxE)] | binds |  | 
B1 |  | binds | binds
B2 |  |  | binds
